Assay [1] addresses T1, C. elegans γ-tubulin complex (γTuC): γ-tubulin TBG-1, GCP2 GIP-2-5Myc, GCP3 GIP-1 and MZT-1, P34475;G5EF84. Put plainly: pull-down on γTuC-coated beads, anti-MBP immunoblot. The conditions noted are these: chain shown with the change, binding 2 hours at 4°C, scale: band intensity relative to SPD-5 1-113 without PLK1.
The target of assay [2] is T1, C. elegans γ-tubulin complex (γTuC): …. Put plainly: pull-down on γTuC-coated beads, anti-SPD-5 immunoblot. The note with it: chain shown with the change, binding 2 hours at 4°C, scale: band intensity relative to SPD-5 135-473 without PLK1.
[3] abbreviates: +PLK1 preincubation (2.0 μM fragment, 500 nM PLK1(T194D), 0.2 mM ATP, 1 hour at 23°C), 75 nM SPD-5 ….

T1 sequence (chain, as listed by the source, chain 1 of 4): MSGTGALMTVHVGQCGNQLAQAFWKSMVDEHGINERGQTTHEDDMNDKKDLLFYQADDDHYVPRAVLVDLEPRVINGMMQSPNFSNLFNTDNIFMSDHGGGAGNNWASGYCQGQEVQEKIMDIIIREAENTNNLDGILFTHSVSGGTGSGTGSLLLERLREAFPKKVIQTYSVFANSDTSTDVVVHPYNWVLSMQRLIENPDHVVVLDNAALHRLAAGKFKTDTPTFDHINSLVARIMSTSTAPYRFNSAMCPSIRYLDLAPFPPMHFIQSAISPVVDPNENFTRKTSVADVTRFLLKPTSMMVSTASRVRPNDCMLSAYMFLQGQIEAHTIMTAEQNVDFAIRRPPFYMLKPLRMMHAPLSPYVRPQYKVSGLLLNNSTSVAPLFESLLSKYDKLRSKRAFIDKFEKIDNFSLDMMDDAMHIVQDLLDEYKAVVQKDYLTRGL
T1 sequence (chain, as listed by the source, chain 2 of 4): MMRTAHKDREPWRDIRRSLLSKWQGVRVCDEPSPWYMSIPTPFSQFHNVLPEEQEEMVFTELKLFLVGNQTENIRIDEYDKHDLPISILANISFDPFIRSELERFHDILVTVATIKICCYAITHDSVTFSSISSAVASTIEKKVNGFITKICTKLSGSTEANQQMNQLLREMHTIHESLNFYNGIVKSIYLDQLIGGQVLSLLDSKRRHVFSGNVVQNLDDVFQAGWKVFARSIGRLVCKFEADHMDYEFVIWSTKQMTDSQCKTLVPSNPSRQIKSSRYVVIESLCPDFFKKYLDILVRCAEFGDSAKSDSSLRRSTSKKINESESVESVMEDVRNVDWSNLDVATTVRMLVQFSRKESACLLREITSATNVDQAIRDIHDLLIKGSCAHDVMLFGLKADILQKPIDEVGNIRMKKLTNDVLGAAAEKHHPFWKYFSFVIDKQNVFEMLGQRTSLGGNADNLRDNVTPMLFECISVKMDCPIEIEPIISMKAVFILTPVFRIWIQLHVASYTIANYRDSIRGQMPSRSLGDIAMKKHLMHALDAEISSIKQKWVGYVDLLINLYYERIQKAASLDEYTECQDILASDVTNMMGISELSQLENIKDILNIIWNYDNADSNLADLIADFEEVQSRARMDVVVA
T1 sequence (chain, as listed by the source, chain 3 of 4): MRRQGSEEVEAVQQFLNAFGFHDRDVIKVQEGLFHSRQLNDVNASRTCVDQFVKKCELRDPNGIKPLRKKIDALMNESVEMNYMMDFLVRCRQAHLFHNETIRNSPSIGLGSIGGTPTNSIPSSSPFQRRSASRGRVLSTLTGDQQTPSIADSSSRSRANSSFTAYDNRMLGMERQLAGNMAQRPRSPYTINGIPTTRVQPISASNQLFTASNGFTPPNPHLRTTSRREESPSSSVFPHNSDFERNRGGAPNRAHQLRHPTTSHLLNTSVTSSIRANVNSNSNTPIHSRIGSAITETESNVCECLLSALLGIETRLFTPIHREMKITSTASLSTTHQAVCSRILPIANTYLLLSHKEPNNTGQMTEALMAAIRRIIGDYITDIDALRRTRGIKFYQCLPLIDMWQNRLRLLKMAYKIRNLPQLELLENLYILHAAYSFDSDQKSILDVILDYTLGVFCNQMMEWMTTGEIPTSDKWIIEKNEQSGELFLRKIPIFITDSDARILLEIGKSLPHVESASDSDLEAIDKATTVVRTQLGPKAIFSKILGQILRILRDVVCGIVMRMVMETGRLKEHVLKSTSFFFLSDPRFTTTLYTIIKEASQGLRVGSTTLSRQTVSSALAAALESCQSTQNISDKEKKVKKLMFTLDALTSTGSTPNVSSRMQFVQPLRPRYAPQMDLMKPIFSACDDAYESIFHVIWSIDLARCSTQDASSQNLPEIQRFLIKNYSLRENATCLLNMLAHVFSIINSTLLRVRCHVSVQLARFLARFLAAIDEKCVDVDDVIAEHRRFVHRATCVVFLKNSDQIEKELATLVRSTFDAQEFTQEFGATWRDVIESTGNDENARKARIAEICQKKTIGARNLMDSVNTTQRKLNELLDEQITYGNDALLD
T1 sequence (chain, as listed by the source, chain 4 of 4): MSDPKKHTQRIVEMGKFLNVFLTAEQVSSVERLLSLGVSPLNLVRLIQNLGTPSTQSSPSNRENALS

B1: MBP-6His-HA (M6HH)-tagged SPD-5 aa 1-113, PLK1-phosphorylated, P91349 S5A; S11A (protein)
chain: MEDNAVLNEDANLEHVEGQPRRSMSQPVLNVEGDKRTSSTSATQQQVLSGAFSSADVRSIPIIQTWEENKALKTKITILRGELQMYQRRYSEAKEASQKRVKEVMDDYVDLKL
The molecule B1 had a response in assay [1] (setting [3]) of 4.7.

B2: MBP-6His-HA (M6HH)-tagged SPD-5 aa 1-113, not phosphorylated, P91349 S5A; S11A (protein)
chain: MEDNAVLNEDANLEHVEGQPRRSMSQPVLNVEGDKRTSSTSATQQQVLSGAFSSADVRSIPIIQTWEENKALKTKITILRGELQMYQRRYSEAKEASQKRVKEVMDDYVDLKL
As to B2, in assay [1] (no PLK1, 75 nM SPD-5 fragment), the response was determined as 0.6.

B3: untagged SPD-5 aa 135-473, PLK1-phosphorylated, P91349 S170A; T178A; T198A (protein)
chain: MQSRIETSEDNFARQMKEFEAQKHAMEERIKELELAATDANNTAVGSFRGTLDDILKKNDPDFALTSGYEERKINDLEAKLLSEIDKVAELEDHIQQLRQELDDQSARLADSENVRAQLEAATGQGILGAAGNAMVPNSTFMIGNGRESQTRDQLNYIDDLETKLADAKKENDKARQALVEYMNKCSKLEHEIRTMVKNSTFDSSSMLLGGQTSDELKIQIGKVNGELNVLRAENRELRIRCDQLTGGDGNLSISLGQSRLMAGIATNDVDSIGQGNETGGTSMRILPRESQLDDLEESKLPLMDTSSAVRNQQQFASMWEDFESVKDSLQNNHNDTLE
In turn, B3 gave a response in assay [2] (setting [3]) of 0.1.

B4: untagged SPD-5 aa 135-473, PLK1-phosphorylated, P91349 T274A; T335A; S339A; S340A (protein)
chain: MQSRIETSEDNFARQMKEFEAQKHAMEERIKELELSATDANNTTVGSFRGTLDDILKKNDPDFTLTSGYEERKINDLEAKLLSEIDKVAELEDHIQQLRQELDDQSARLADSENVRAQLEAATGQGILGAAGNAMVPNSAFMIGNGRESQTRDQLNYIDDLETKLADAKKENDKARQALVEYMNKCSKLEHEIRTMVKNSAFDSAAMLLGGQTSDELKIQIGKVNGELNVLRAENRELRIRCDQLTGGDGNLSISLGQSRLMAGIATNDVDSIGQGNETGGTSMRILPRESQLDDLEESKLPLMDTSSAVRNQQQFASMWEDFESVKDSLQNNHNDTLE
B4 had a response in assay [2] (setting [3]) of 2.8.

B5: untagged SPD-5 aa 135-473, not phosphorylated, P91349 S170A; T178A; T198A; T274A; T335A; S339A; S340A (protein)
chain: MQSRIETSEDNFARQMKEFEAQKHAMEERIKELELAATDANNTAVGSFRGTLDDILKKNDPDFALTSGYEERKINDLEAKLLSEIDKVAELEDHIQQLRQELDDQSARLADSENVRAQLEAATGQGILGAAGNAMVPNSAFMIGNGRESQTRDQLNYIDDLETKLADAKKENDKARQALVEYMNKCSKLEHEIRTMVKNSAFDSAAMLLGGQTSDELKIQIGKVNGELNVLRAENRELRIRCDQLTGGDGNLSISLGQSRLMAGIATNDVDSIGQGNETGGTSMRILPRESQLDDLEESKLPLMDTSSAVRNQQQFASMWEDFESVKDSLQNNHNDTLE
The molecule B5 came in with a response in assay [2] (no PLK1, 75 nM SPD-5 fragment) of 0.1.

B6: untagged SPD-5 aa 135-473, not phosphorylated, P91349 S170A; T178A; T198A (protein)
chain: MQSRIETSEDNFARQMKEFEAQKHAMEERIKELELAATDANNTAVGSFRGTLDDILKKNDPDFALTSGYEERKINDLEAKLLSEIDKVAELEDHIQQLRQELDDQSARLADSENVRAQLEAATGQGILGAAGNAMVPNSTFMIGNGRESQTRDQLNYIDDLETKLADAKKENDKARQALVEYMNKCSKLEHEIRTMVKNSTFDSSSMLLGGQTSDELKIQIGKVNGELNVLRAENRELRIRCDQLTGGDGNLSISLGQSRLMAGIATNDVDSIGQGNETGGTSMRILPRESQLDDLEESKLPLMDTSSAVRNQQQFASMWEDFESVKDSLQNNHNDTLE
The molecule B6 came in with a response in assay [2] (no PLK1, 75 nM SPD-5 fragment) of 0.7.

B7: untagged SPD-5 aa 135-473, PLK1-phosphorylated, P91349 S170A; T178A; T198A; T274A; T335A; S339A; S340A (protein)
chain: MQSRIETSEDNFARQMKEFEAQKHAMEERIKELELAATDANNTAVGSFRGTLDDILKKNDPDFALTSGYEERKINDLEAKLLSEIDKVAELEDHIQQLRQELDDQSARLADSENVRAQLEAATGQGILGAAGNAMVPNSAFMIGNGRESQTRDQLNYIDDLETKLADAKKENDKARQALVEYMNKCSKLEHEIRTMVKNSAFDSAAMLLGGQTSDELKIQIGKVNGELNVLRAENRELRIRCDQLTGGDGNLSISLGQSRLMAGIATNDVDSIGQGNETGGTSMRILPRESQLDDLEESKLPLMDTSSAVRNQQQFASMWEDFESVKDSLQNNHNDTLE
B7: the response in assay [2] (setting [3]) is 0.

B8: untagged SPD-5 aa 135-473, not phosphorylated, P91349 T274A; T335A; S339A; S340A (protein)
chain: MQSRIETSEDNFARQMKEFEAQKHAMEERIKELELSATDANNTTVGSFRGTLDDILKKNDPDFTLTSGYEERKINDLEAKLLSEIDKVAELEDHIQQLRQELDDQSARLADSENVRAQLEAATGQGILGAAGNAMVPNSAFMIGNGRESQTRDQLNYIDDLETKLADAKKENDKARQALVEYMNKCSKLEHEIRTMVKNSAFDSAAMLLGGQTSDELKIQIGKVNGELNVLRAENRELRIRCDQLTGGDGNLSISLGQSRLMAGIATNDVDSIGQGNETGGTSMRILPRESQLDDLEESKLPLMDTSSAVRNQQQFASMWEDFESVKDSLQNNHNDTLE
B8 came in with a response in assay [2] (no PLK1, 75 nM SPD-5 fragment) of 0.1.

Source of the values: doi:10.1101/2025.11.20.689565.
